One substance from patent US20230101835A1 can be followed below.

This assay addresses plasma derived C3b (UniProt P01024). Nature of the assay: cell-based or functional assay.
Sequence of UniProt P01024 (P01024 749-1663 limits assumed, chain 1 of 2): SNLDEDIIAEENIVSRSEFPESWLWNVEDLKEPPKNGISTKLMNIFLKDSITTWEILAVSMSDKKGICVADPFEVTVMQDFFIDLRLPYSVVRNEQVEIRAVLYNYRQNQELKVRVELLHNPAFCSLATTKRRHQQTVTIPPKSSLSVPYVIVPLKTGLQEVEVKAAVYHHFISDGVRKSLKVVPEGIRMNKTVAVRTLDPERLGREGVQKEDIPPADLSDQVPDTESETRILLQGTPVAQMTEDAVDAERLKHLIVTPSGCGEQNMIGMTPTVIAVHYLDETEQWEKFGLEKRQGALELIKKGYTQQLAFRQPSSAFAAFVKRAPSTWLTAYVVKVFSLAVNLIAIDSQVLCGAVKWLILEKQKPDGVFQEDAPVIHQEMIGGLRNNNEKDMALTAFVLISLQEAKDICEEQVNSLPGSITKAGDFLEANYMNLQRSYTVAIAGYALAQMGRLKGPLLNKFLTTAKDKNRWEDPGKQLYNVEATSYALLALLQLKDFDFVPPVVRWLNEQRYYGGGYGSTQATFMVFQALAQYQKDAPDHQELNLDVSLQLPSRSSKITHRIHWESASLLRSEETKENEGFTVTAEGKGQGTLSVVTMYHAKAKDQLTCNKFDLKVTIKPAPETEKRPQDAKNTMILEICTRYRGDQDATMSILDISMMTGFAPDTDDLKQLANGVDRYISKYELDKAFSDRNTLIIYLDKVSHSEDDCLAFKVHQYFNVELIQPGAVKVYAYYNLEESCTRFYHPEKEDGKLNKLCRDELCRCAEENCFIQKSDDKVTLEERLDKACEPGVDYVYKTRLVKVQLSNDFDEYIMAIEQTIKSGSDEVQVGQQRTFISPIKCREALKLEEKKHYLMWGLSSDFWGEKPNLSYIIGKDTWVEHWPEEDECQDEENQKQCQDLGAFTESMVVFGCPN
Sequence of UniProt P01024 (P01024 23-667 limits assumed, chain 2 of 2): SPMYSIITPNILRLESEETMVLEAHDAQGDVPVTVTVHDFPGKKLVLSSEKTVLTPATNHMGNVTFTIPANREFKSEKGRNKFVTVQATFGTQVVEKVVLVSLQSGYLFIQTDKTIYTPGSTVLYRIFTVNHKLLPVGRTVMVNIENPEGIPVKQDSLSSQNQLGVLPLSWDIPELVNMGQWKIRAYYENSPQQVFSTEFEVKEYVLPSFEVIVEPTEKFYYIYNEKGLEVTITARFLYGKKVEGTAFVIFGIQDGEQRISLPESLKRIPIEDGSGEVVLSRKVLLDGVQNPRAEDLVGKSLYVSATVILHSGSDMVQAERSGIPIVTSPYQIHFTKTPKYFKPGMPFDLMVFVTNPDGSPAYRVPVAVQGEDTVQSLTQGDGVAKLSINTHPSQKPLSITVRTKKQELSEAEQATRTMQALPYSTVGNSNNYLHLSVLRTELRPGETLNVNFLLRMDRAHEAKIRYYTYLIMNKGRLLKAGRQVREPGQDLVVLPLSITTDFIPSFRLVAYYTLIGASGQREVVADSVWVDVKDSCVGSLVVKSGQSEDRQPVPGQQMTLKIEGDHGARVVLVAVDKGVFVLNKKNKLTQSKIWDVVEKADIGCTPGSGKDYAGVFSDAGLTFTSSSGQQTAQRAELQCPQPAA

Regarding “FH^1-5∧18-20 (from UniProt P08603 19-322; P08603 1046-1231)”, the fluid phase Factor I cofactor activity: concentration of regulator at which the C3α′ band disappears (complete degradation of C3b), SDS-PAGE was 200 nM.
